Experimental data: paper PMC12400196, “Triosephosphate isomerase from Fasciola hepatica: high-resolution crystal structure as a drug target” (Acta Crystallographica Section F: Structural Biology …, 2025)

Molecular target: the molecule itself
Experiment: SEC; HiLoad 16/600 Superdex 200 pg, 25 mM Tris, 300 mM NaCl pH 7.0, 277 K; preparative step after IMAC

B1: Triosephosphate isomerase from Fasciola hepatica (enzyme)
chain: MASNRKFFVGGNWKMNGSKESNQKLLKTLSDAKPDANTEILVAVPFVYLKDVREHLDKRFHVAAQNCYKVASGAFTGEISPAMIRDCGCEWVILGHSERRHIFGESDELIGEKVNHALTCGLKVVPCIGEKLDEREAGKTEQVCFRQLDAIKKGIPKAEDWSRVVIAYEPVWAIGTGKTASPEQAQEVHHAVRQWLEKNVSQAVASSLRITYGGSVTAANCKELAKKPDVDGFLVGGASLKPEFVDICNANRG
notes: triosephosphate isomerase (EC 5.3.1.1), Fasciola hepatica; gene in plasmid pET-46 Ek/LIC; The plasmid was provided by D. Timson (construct of Zinsser et al., 2013); also called FhTPI; F. hepatica TPI; source: E. coli Rosetta (DE3), purified (IMAC, SEC)
With B1 the “stoichiometry N” value was 2.
